# Assay results published in article PMC7894528, “Metal Ion Promiscuity and Structure of 2,3‐Dihydroxybenzoic Acid Decarboxylase of Aspergillus oryzae” (Chembiochem, 2020).
# B1: 2,3-DHBD_Ao (Aspergillus oryzae RIB40) (protein)
# chain: MLGKIALEEAFALPRFEEKTRWWASLFSTDAETHVKEITDINKIRIEHADKHGVGYQILSYTAPGVQDIWDPVEAQALAVEINDYIAEQVRVNPDRFGAFATLSMHNPKEAADELRRCVEKYGFKGALVNDTQRAGPDGDDMIFYDNADWDIFWQTCTELDVPFYMHPRNPTGTIYEKLWADRKWLVGPPLSFAHGVSLHVLGMVTNGVFDRHPKLQIIMGHLGEHVPFDMWRINHWFEDRKKLLGLAETCKKTIRDYFAENIWITTSGHFSTTTLNFCMAEVGSDRILFSIDYPFETFSDACEWFDNAELNGTDRLKIGRENAKKLFKLDSYKDSSA
# notes: recombinant, purified by size exclusion chromatography
# Substrate: O=C(O)c1cccc(O)c1O
# Assay: steady-state decarboxylation kinetics
# Format: biochemical, Aspergillus oryzae
# Details: Mg2+-loaded enzyme; decarboxylation direction
protein,measurement,value
B1,Km,208 µM
same,kcat,15 s–1
